Test results: patent US20150351390A1, “COMPOSITIONS AND METHODS FOR AUXIN-ANALOG CONJUGATION” (PIONEER HI-BRED INTERNATIONAL, INC., priority 2012, published 2015)

B1: VvGH3-7: GH3 protein, accession XP_002272560 (protein, listed as Vitis vinifera)
chain: MESAAGAESNGEHEIIGWFEDVSENTGYVQTQTLCRILELNSGVEYLKKWLGDINVQEMEASALESLYTSLVPLASHADLETYIQRIADGDTSPILTNQPITTLSLSSGTTEGRQKYVPFTRHSSQTTLQIFQLAAAYRSRVYPITPGRRILEFIYSSKQFKTKGGLIAGTATTHYFASEEFKIKQEKTKSFTCSPEEVISSGDYKQSTYCHLLLGLHFHDEVEFITSTFAYSIVQAFRTFEELWRNICSDIREGIVSSRISLPKVRKAVSDIISPNPGLASWIEASCKELEDKDWFGLIPKLWPNAKYVYSIMTGSMQPYLKKLRHYAGDLPLVSADYGSTESWIGANIDPSSPPENVTFAVIPTFSYFEFIPLYRQNQNCSSSIDDFIEDEPVPLSQVKIGQEYEIVLTTFTGLYRYRLGDVVEVAGFHKGTPKLNFICRRKLILTVNIDKNTEKDLQSVVEVGSQLLGKTKAELVDFTSHADLVKQPGHYIIYWEIKGEADDKVLSECCNEMDACFVDQGYIVSRKTHSIGPLELCIVERGTFKKILDHFIGKGAALSQFKTPRCTADEVLLRILNVCTIKRFHSTAYG
B2: SlGH3-14: GH3 protein, SGN-E745758 (protein, listed as Solanum lycopersicum)
chain: MKMMVENIEKKFDAEEVIEDFEVLTKDAGRIQEETLEKILKENGGTEYLKQWGLNGRTDVETFKACVPIVGHNDLEPYIQRIADGDLSPILTGKPIETISLSSGTTQGKPKFVPFNDELMDSTMQIFKTSFAFRNREFPIGNGKALQFIYSSKQFKTKGGLAAGTATTNVYRNAQFKKTMNAMSTPVCSPDEVIFGPDFQQSLYCHLLSGLIFRDEVQVVSSTFAHSIVHAFRTFEQVWEELVVDIREGVLSSRVTVPSIRLAMSKLLKPDPELAETIYSKCSSLSNWYGLIPELFPNTKYIYGIMTGSMEPYLKKLRHYAGELPLLSADYGSSEGWVGVNVNPKFPPEMVTYAVLPNIGYFEFLPLEENLVGVEQANSPVGLTEVKLGEEYEIVFTNFAGLYRYRLGDVVKIKGFHNGTPELQFVCRRNLLLSINIDKNTEKDLQLAVEAAGKHLVDEKLEVMDFTSHVNVSADPGHYVIFWELSGEATDEILQECCNCLDKSFLDAGYVSSRKVNAIGALELRIVKRGTFHKILDHFVGLGGAVSQFKTPRCVGPKNSSLIQILSSNVVKSYSSTAFC
B3: SlGH3-8: GH3 protein, Solyc07g054580.2 (protein, listed as Solanum lycopersicum)
chain: MTNINCKDKIETDIIGWFDEVADDSAVVQRRTLRRILEMNHGVEYLKKWIGDIKIEEIDENLLESTYASLVPLASHADIEPFTKRIADGDTTPLLTQQPITNLSLSSGTTDGRQKFVPFTHHSSQTTLQIFKLAAAYRSRIYPIRRGGRILEFIYSSKQCKTKGGIIVGTATTHYYASDEFKIKQQQTKSFTCSPQEVISCGDYKQSTYCHLLLGLYFSHEVEFVTSAFAYSIVEAFRSFEEMWKELCHDIREGSLSSIINIDKVRKSVSGITQPNPELASRIESICVELERADWFSIIPKLWPNAKYVYSIMTGSMMPYLTKLRHYAGELPLVSADYGSTESWIGVNLDPSNPPEKVTFAVVPTFSYFEFIPLYKHKSNYNYQNVNLNSTNDDYIEGNSMPLCQVKSGQQYEIVITTFTGLYRYRLGDVVEVDGFYKKTPKLNFICRRNLILAINIDKNTEKDLQLVVERGARILSKGTRRAELVDFTSHANVTKQPGHYVIYWEIKGEIDEKVLDECCRDMDASFVDHGYVVSRRTKSIGPLELCIVERGTFKKILESYIGNGAALSQFKTPRCTSNKELLNILNVCTIKRFYSTAYG
B4: ZmACN26159: GH3 protein, accession ACN26159 (protein)
chain: MTICSSEEIIDEFELLTRDARRVQQDTLRKILELNGDAEYLNRFNLGRRTDSKSFKSCIPLCVHSDIESYIQRIADGDDSPVLTGKPITSLSLSSGTTQGKPKFLPFNDELLESTFQIFRTSYAFRNREYPIVNGKALQFVYGSKQVFTQGGILAATATTNLYRSQRFKEAMKDVMTQCCSPDEVIFGPDFHQSLYCHLLCGLINSDEVQFVFSPFAHSLVHAFHSLEEVWEDLCADIRDGVLSKRVTAPSIRQAVSKILRPNPELASSIYIKCQSLSNWYGVIPTLWPNVKYIYGIMTGSMEPYLKKLRHYAGHLPLLSADYGASEGWVGSNINPTLPPEEVTYAVLPNIAYFEFIPLEKPKWEETEICSSVHYIESEPVGLTEVEVGKIYEVVITNFAGLYRYRLGDIVKIAGFHNATPELQFICRRSLVLSVNIDKNTEKDLQLAVEAAEKLLAAEKLEVVDFTSLVDRSSEPGHYVIFWELSSDDGASEDVLSGCASCMDLAFADAGYVGSRKTQTIGALELRVLRKGAFAQVMNHYLSLGGAVSQFKTPRFVSQSNSKVLQILSRNVTRSYFSTAYGL
modifications: Zea mays
B5: SlGH3-1: GH3 protein, SL2.40ch01: 78555183-78557768 (protein, listed as Solanum lycopersicum)
chain: MLEKIEMKFDPEEVIEEFEALTKEAGKVQEETLKKILEENGSTVYLQQWGLNGRTDPEIFKSCVPLVTHKDLEPYIQRIADGDLSPVLTGKPITTISLSSGTTQGRPKFVPFNDELMESTMQIYKTSFAFRNREFPIENGKALQFIYSSKQFKTKGGLAAGTATTNVYRNAHFKKTMRAMQTPCCSPDEVIFGPDFHQSLYCHLLCGLIFRDEVQVVSSTFAHSIVHAFRTFEQVWEELVADIREGVISSRVTVPSMRSAIMKLLKPDPEQADSIYNKCSGLSNWYGLIPVLFPSARYIYGIMTGSMEPYLKKLRHYAGELPLLSADYGSSEGWIGANVNPKLPPELVTYAVLPNIGYFEFIPLRVNLDGLEPTPVGLAEVKLGEEYEIVVTNFAGLYRYRLGDVVKIKGFHNATPELQFICRSNLILSINIDKSTEKDLQLAVEAAARLLVDEKLEVVDFTSHANVATDPGHYVVFWELSGEASDETLQECCNCLDKSFVDAGYVGSRKVNVIGALELRVVKKGTFHKILDHFVGLGGAVSQFKTPRCVGQNNSRLLQILCYDVVKSYFSTAY
B6: VvGH3-9: GH3 protein, accession XP_002280738.1 (protein, listed as Vitis vinifera)
chain: MLEKMEEFKAEKVIEEFEELTKDAGRVQRETLKKILEDNASAEYLQKQGLNGRTDPESYQACVPLVTHADLVPYIKRIADGDTSPVLTGKPIKTMSLSSGTTQGKQKYVPFNDELLETTLQIYRTSFAFRNREFPVRNGMALQFIYGSKQFKTEGGLFAGTATTNVFSSSQFKTTMKAIESPCCSPDEVIFGPDFRQSLYCHLLCGLIHHNEIQLVSSTFAHSIVYAFRTFEQVWEQLCADIQDGVLTKDVTVPSIRAVMSKLLKPNPELAEWIYKKCSGLSNWYGVIPALFPNVKYVYGIMTGSMEPYLKKLRHYAGDVPLLSADYGSSEGWIGANINPKLPPELATYAVLPNIGYFEFIPLRGSAEEDRQDKIQSSFESKPVGLTEVKIGEEYEIIVTNFAGLYRYRLGDVVKIAGFHNMTPELQFVCRRNLLLTINIDKNTEKDLQLAVEAAAEVLAPEKVEVIDFTSQVDKSTDPGHYVIFWEISGEVSVEVSSECCNCLDRSFVDAGYISSRKVNSIGPLELKLVRRGTFQKILDHYLGIGGVLSQYKTPRCVNPNNNMVLQILYSNVVKSHFSTAFG

Experiment: LC-MS assay of GH3 conjugation of IAA with Asp or Glu
Type: biochemical
Conditions: LC-MS; IAA with Asp
Summary of the method: (§1)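 N-His-tagged GH3 homologs expressed in E. coli C41(DE3) and Ni-NTA purified (44 to 164 μg/mL) were incubated 3 hours at 30° C. in 20 mM Tris-HCl pH 8.0, 5 mM MgCl2, 1 mM DTT with 5 mM each of auxin, ATP and Asp or Glu. Conjugates were quantified by LC-MS against standards.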

| Molecule | Detected auxin conjugates: IAA-Asp |
| --- | --- |
| B1 | Yes |
| B2 | No |
| B3 | Yes |
| B4 | No |
| B5 | Yes |
| B6 | No |

Same assay, conditions: LC-MS; IAA with Glu

| Molecule | Detected auxin conjugates: IAA-Glu |
| --- | --- |
| B1 | No |
| B2 | No |
| B3 | Yes |
| B4 | No |
| B5 | No |
| B6 | No |

Experiment: LC-MS assay of GH3 conjugation of 2,4-D with Asp or Glu
Type: biochemical
Conditions: LC-MS; 2,4-D with Asp
Summary of the method: as §1

| Molecule | Detected auxin conjugates: 2,4-D-Asp |
| --- | --- |
| B1 | No |
| B2 | No |
| B3 | Yes |
| B4 | No |
| B5 | No |
| B6 | No |

Same assay, conditions: LC-MS; 2,4-D with Glu

| Molecule | Detected auxin conjugates: 2,4-D-Glu |
| --- | --- |
| B1 | No |
| B2 | No |
| B3 | Yes |
| B4 | No |
| B5 | No |
| B6 | No |

Experiment: LC-MS assay of GH3 conjugation of dicamba with Asp or Glu
Type: biochemical
Conditions: LC-MS; dicamba with Asp
Protocol: To detect and monitor the formation of acyl conjugates with 2,4-D or dicamba, a sensitive LC-MS method was developed using the respective amino acid conjugate standards. […] […] […] The supernatant was diluted 20× in water and then analyzed by LC-MS (AB Sciex 4000 QTrap coupled with Shimadzu Nexera UHPLC) using a Phenomenex Luna 3 μm Phenyl-Hexyl (00B-4256-Y0) column. The concentration of the conjugates was calculated based on the standards. Kinetic parameters were estimated by fitting initial velocity values to the Michaelis-Menten equation.
The GH3 superfamily conjugase activity analysis of IAA, 2,4-D or dicamba with Asp or Glu was done using LC-MS to analyze the final conjugate products as described in Example 1. Protein sequences of GH3 homologs (Table 3) were obtained from public databases (NCBI, http://www.ncbi.nlm.nih.gov/) by Blast analysis of AtGH3.17 protein sequence (accession # Q9FZ87). Coding sequences were designed for optimal expression in E. coli based on the protein sequences and synthesized. Synthesized coding sequences along with N-term his-tag coding sequences were cloned into a pET24a-based E. coli expression vector. The E. coli expression vectors were transformed into OverExpress C41(DE3) cells (Lucigen) for protein expression. Recombinant E. coli strains were inoculated into 5 ml LB media supplemented with 40 mg/L kanamycin and cultured overnight at 37° C. The overnight culture (0.5 mL) was inoculated into 50 mL LB medium plus 40 mg/L kanamycin and grown at 30° C. until OD600 reached 0.6. The cultures were induced with 0.2 mM IPTG at 16° C., 230 rpm overnight. Cells were harvested by centrifugation at 7,000 rpm for 10 mins. The cell pellet from 50 mL of cell culture was frozen and thawed twice and then lysed in 800 μL lysis buffer A (150 mM NaCl, 50 mM Tris-HCl pH 8.0, 5 mM MgCl2, 10% glycerol) plus 20 mM imidazole, 1 mM DTT, 0.2 mg/ml lysozyme, 1/200 protease inhibitor cocktail (EMD set3, EDTA free) and 1/2000 endonuclease. Lysate was then centrifuged at 13,000 rpm for 30 min at 4° C. Supernatant was loaded onto 200 μL Ni-NTA columns pre-equilibrated with buffer A with 20 mM imidazole at 4° C. Each column was then washed with (1) 2×800 μL of buffer A with 10 mM imidazole, (2) 2×800 μL of buffer A with 20 mM imidazole and (3) 2×200 μL of buffer A with 50 mM imidazole. Protein was eluted with 200 μL of buffer A with 250 mM imidazole. The concentration was measured by Bradford assay. Purified protein was used in conjugation reaction assays as described in example 1.

| Molecule | Detected auxin conjugates: Dicamba-Asp |
| --- | --- |
| B1 | No |
| B2 | No |
| B3 | No |
| B4 | No |
| B5 | No |
| B6 | No |

Same assay, conditions: LC-MS; dicamba with Glu

| Molecule | Detected auxin conjugates: Dicamba-Glu |
| --- | --- |
| B1 | No |
| B2 | No |
| B3 | No |
| B4 | No |
| B5 | No |
| B6 | No |
